Source: patent publication US20150037333A1 (NEXVET AUSTRALIA, published 2015)

B1: canine TNFR-HCC (caTNFRp50:ca IgGHCC Fc), SEQ ID NO:8 (Fc fusion)
chain: LVPHPRNRVKRAILCPQGKYIHPQDDSICCTKCHKGTYLYNDCPGPGLDTDCRECENGTFTASENHLRQCLSCSKCRKEMNQVEISPCTVYRDTVCGCRKNQYRFYWSETLFQCNNCSLCLNGTVQISCQEKQNTICTCHAGFFLREHECVSCVNCKKNTECGKLCLPPVETVKVPQDPGSTAKECECKCNCNNCPCPGCGLLGGPSVFIFPPKPKDILVTARTPTVTCVVVDLDPENPEVQISWFVDSKQVQTANTQPREEQSNGTYRVVSVLPIGHQDWLSGKQFKCKVNNKALPSPIEEIISKTPGQAHQPNVYVLPPSRDEMSKNTVTLTCLVKDFFPPEIDVEWQSNGQQEPESKYRMTPPQLDEDGSYFLYSKLSVDKSRWQRGDTFICAVMHEALHNHYTQISLSHSPGK
notes: Expressed in CHO cells; also called caTNFrecp60-HCC; canine TNFR-HCC fusion protein
B2: canine TNFR-HCB (caTNFRp50:ca IgGHCB Fc), SEQ ID NO:7 (Fc fusion)
chain: LVPHPRNRVKRAILCPQGKYIHPQDDSICCTKCHKGTYLYNDCPGPGLDTDCRECENGTFTASENHLRQCLSCSKCRKEMNQVEISPCTVYRDTVCGCRKNQYRFYWSETLFQCNNCSLCLNGTVQISCQEKQNTICTCHAGFFLREHECVSCVNCKKNTECGKLCLPPVETVKVPQDPGSTPKRENGRVPRPPDCPKCPAPEMLGGPSVFIFPPKPKDTLLIARTPEVTCVVVDLDPEDPEVQISWFVDGKQMQTAKTQPREEQFNGTYRVVSVLPIGHQDWLKGKQFTCKVNNKALPSPIERTISKARGQAHQPSVYVLPPSREELSKNTVSLTCLIKDFYPPDIDVEWQSNGQQEPESKYRTTPPQLDEDGSYFLYSKLSVDKSRWQRGDTFICAVMHEALHNHYTQESLSHSPGK
notes: Expressed in CHO cells; also called caTNFrecp60-HCB; canine TNFR-HCB fusion protein

What was measured:
[1] = biological target: T1, complement C1q (from normal human serum) (human, UniProt P02745 23-245; P02746 28-253; P02747 29-245); experiment: C1q binding ELISA; fusion protein on plates coated with canine TNF (4 µg/ml), human serum as source of complement
T1 construct: Native C1q in normal human serum, detected with a C1q reactive polyclonal antibody-HRP conjugate
Experimental: The canine TNFR-HCB, canine TNFR-HCC and human TNFR-canine HCB fusion proteins were incubated with plates pre-coated with canine TNF (4 μg/ml). For comparison, a caninised monoclonal antibody (MAb, canine isotype HCB) with specificity to nerve growth factor (NGF) was incubated with plates coated with NGF. The plates were washed and incubated with normal or heat-killed human serum as a source of complement. Binding of complement C1q was detected using a C1q reactive polyclonal antibody-HRP conjugate.

canine TNF-alpha = canine TNF-alpha (canine, UniProt P51742 77-233); experiment: cell-based or functional assay
Chain of canine TNF-alpha (P51742 77-233 limits assumed): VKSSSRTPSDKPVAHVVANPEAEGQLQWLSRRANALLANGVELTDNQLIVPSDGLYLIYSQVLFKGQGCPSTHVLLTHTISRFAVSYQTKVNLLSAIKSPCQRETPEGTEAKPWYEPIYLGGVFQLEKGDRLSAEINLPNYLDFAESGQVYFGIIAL

T1 sequence (P02745 23-245 limits assumed, chain 1 of 3): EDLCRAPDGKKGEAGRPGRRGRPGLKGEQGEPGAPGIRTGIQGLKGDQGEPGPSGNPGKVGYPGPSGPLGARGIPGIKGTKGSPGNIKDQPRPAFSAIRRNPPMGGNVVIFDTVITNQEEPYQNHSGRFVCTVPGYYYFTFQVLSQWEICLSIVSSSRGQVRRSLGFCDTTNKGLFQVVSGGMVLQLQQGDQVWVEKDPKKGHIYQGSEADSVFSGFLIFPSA
T1 sequence (P02746 28-253 limits assumed, chain 2 of 3): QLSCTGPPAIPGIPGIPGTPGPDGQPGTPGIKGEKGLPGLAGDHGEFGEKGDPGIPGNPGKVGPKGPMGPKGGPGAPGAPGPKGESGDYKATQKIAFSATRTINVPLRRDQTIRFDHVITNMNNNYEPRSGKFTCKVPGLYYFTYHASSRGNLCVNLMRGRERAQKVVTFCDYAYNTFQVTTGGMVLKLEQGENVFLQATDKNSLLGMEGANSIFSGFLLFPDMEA
T1 sequence (P02747 29-245 limits assumed, chain 3 of 3): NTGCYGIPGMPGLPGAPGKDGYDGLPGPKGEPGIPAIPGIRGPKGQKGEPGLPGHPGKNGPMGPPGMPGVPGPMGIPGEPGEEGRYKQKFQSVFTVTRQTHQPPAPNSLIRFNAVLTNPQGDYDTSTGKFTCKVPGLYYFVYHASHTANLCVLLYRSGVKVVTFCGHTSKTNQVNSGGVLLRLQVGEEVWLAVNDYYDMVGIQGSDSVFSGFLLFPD

Binder	binding result [1]	inhibition of canine TNF-alpha bioactivity (1 ng/ml) in 293-HEK cells with NF-kB-EGFP reporter construct pTRH1; IC50 (canine TNF-alpha)
B1	no binding	~1 ng/ml
B2	no binding	~1 ng/ml
